Measured values taken from patent US20240294632A1 (XL PROTEIN, published 2024).

Tests used:
P/A #1 sequence [1] = target: T1, P/A #1 sequence; assay: ELISA and SPR with Fabs
T1 construct: in sentences on specificity it stands for P/A #1 polypeptides in general
T1 peptide: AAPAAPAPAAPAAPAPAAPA

PAS #1(600)-Leptin [2] = target: T2, PAS #1(600)-Leptin; assay: ELISA, antigen coated, Fab titrated
T2 chain: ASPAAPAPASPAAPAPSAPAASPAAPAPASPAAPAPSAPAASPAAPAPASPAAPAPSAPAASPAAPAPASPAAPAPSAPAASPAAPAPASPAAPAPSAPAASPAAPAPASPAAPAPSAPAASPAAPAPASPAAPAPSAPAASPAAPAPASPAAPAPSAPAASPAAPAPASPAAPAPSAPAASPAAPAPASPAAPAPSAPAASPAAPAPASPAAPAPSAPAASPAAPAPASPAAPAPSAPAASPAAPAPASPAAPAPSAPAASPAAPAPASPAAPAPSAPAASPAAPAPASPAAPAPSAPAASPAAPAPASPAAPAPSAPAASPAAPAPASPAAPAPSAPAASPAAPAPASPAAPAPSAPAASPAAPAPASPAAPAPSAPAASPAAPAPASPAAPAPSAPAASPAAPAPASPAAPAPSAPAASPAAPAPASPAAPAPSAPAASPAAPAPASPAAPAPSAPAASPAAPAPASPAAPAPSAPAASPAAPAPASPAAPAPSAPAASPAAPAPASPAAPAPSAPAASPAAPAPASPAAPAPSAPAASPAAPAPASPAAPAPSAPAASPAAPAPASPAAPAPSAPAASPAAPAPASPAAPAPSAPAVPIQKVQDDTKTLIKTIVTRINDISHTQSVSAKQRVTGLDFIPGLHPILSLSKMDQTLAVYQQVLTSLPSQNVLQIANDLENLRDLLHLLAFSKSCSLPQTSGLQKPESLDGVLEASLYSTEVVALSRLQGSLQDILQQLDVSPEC

P/A#1(600)-GMCSF = assay: ELISA, Fab titrated on P/A#1(600)-GMCSF
PAS #1(200)-IL1Ra [3] = target: T3, PAS #1(200)-IL1Ra; assay: SPR, biotinylated antigen on CAPture chip, Fab as analyte, 1:1 model
T3 construct: PASylated fusion protein produced in E. coli; Biotinylated for the SPR measurements with Fabs

IL1Ra-PAS#1(800) = assay: ELISA, Fab titrated on IL1Ra-PAS#1(800) (x axis: Fab concentration)
PAS #1(600)-Leptin [4] = target: T2, PAS #1(600)-Leptin; assay: ELISA, Fab titrated on PAS#1(600)-Leptin (x axis: Fab concentration)
StrepII-eGFP-PAS #1(200) = target: T4, StrepII-eGFP-PAS #1(200); assay: affinity chromatography on Fab coupled to a 1 ml HiTrap NHS column, elution with 1 M L-prolinamide; A280/A488 traces and SDS-PAGE of the fractions
T4 construct: also called StrepII-eGFP-PAS #1(200) fusion protein

H1GA-PAS #1(200)-His6 = target: T5, H1GA-PAS #1(200)-His6; assay: affinity chromatography of a periplasmic extract on Fab coupled to a 1 ml HiTrap column, elution with 1 M L-prolinamide; blank-corrected A280 trace and SDS-PAGE [B]
T5 construct: also called C-terminally PASylated Anticalin H1GA-PAS #1(200)-His6
T5 chain: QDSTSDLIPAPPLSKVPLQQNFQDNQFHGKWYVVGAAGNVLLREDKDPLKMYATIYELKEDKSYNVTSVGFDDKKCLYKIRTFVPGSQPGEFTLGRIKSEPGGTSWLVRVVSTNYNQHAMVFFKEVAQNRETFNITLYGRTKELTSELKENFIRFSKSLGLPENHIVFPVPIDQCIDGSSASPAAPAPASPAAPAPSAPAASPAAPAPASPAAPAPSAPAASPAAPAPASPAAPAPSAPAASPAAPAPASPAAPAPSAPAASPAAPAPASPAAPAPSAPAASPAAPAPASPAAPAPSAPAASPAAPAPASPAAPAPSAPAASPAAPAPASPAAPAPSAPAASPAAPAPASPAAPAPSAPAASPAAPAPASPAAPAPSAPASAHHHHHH

P/A #1 sequence [5] = target: T1, P/A #1 sequence; assay: SPOT peptide array / hybridoma screening
IL1Ra (Kineret/Anakinra) = target: T6, IL1Ra (Kineret/Anakinra) (UniProt P18510 26-177); assay: western blot, hybridoma supernatant 1:2000
T6 construct: Commercial drug product; also called non-PASylated protein version

hu4D5-PAS #1(200) [6] = target: T7, hu4D5-PAS #1(200); assay: MAb capture ELISA, hybridoma supernatant on anti-mouse IgG Fc, antigen titrated
T7 construct: Detected with anti-human kappa light chain antibody in the capture ELISA

P/A #1(200)-IL1Ra = target: T8, P/A #1(200)-IL1Ra; assay: Western blot of the fusion protein after SDS-PAGE; anti-mouse IgG Fc-AP, BCIP/NBT [G]
T8 construct: PASylated fusion protein produced in E. coli; Biotinylated for the SPR measurements with Fabs

PAS #1(200)-IL1Ra [7] = target: T3, PAS #1(200)-IL1Ra; assay: SPR, MAb from hybridoma supernatant captured by anti-mouse antibody, antigen as analyte, bivalent analyte model
hu4D5-PAS #1(200) [8] = target: T7, hu4D5-PAS #1(200); assay: MAb capture ELISA: MAb from hybridoma supernatant captured by anti-mouse IgG Fc, hu4D5-PAS#1(200) titrated (x axis: antigen concentration)
[9] = target: T9, PASylated Thymosin alpha 1; assay: sandwich ELISA in diluted rat plasma: MAb 2.1 coated as capture antibody, MAb 1.2-alkaline phosphatase as detection reagent; calibration curve
T9 construct: also called PASylated Tα1
T9 chain: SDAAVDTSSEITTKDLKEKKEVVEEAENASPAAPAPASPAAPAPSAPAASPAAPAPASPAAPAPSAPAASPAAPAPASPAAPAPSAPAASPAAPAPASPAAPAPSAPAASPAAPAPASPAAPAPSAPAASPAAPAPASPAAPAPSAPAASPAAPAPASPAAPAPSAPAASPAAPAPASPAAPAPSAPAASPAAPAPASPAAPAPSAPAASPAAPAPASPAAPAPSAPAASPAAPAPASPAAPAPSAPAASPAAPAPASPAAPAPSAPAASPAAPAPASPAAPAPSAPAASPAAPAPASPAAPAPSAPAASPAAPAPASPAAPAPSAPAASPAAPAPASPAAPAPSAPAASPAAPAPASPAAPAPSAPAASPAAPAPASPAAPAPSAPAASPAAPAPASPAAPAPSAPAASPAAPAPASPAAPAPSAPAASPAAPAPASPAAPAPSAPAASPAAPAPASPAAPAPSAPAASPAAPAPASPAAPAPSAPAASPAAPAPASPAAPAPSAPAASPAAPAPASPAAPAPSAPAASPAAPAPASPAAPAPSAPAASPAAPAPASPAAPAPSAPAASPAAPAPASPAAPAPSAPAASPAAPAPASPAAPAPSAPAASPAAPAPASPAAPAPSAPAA

APSA(200)-IL1Ra [10] = target: T10, APSA(200)-IL1Ra; assay: ELISA, antigen coated, Fab titrated
T10 construct: Fusion protein produced in E. coli; Labelled with DIG-NHS in the MAb capture ELISA

APSA(200)-IL1Ra [11] = target: T10, APSA(200)-IL1Ra; assay: ELISA, Fab titrated on coated APSA(200)-IL1Ra
Pga-APSAAPSAAPSA = target: T11, Pga-APSAAPSAAPSA (N-terminal pyroglutamyl residue (Pga), counted as P1 in the structure); assay: co-crystal structure of the recombinant Fab with the peptide
T11 construct: Peptide ligand co-crystallised with the Fab of MAb 3.1; also called Pga-(APSA)3 peptide; (APSA)3 peptide
T11 peptide: APSAAPSAAPSA

APSA(200)-TrxA = target: T12, APSA(200)-TrxA; assay: SPR, biotinylated antigen on CAPture chip, Fab as analyte, 1:1 model
T12 construct: Biotinylated and immobilised on a biotin CAPture chip; also called thioredoxinA-APSA(200)

T8 sequence (chain, as listed by the source limits assumed): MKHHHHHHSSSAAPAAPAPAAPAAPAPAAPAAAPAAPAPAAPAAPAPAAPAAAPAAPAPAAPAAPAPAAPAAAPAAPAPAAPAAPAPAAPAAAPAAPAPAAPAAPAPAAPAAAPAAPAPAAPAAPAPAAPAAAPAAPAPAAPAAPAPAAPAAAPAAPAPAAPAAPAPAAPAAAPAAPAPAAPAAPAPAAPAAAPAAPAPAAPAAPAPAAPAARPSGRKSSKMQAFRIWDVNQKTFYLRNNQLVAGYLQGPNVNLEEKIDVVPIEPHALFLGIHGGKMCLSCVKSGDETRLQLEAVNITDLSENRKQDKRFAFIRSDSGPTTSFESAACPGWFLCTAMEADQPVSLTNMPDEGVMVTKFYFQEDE
T6 sequence (P18510 26-177 limits assumed): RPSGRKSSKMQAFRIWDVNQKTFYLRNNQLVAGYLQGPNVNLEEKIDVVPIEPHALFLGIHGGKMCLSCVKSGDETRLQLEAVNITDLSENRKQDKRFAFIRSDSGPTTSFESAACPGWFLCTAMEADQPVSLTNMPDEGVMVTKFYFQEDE

B1: Fab fragment of Anti-PA(S) MAb 1.2 (Fab, V domains shown)
VH: QVQLVESGGGLVQPGGSLKLSCAASGFTFSSYGMSWVRQTPDKRLELVATINSNGGSTYYLDSVKGRFTISRDKAKNTLYLQMSSLKSEDTAMYYCVRGGSIYDGYDYAMDYWGQGTSVTVSS
VL: DIVLTQSPASLAVSLGQRATISCRASQSVSTSSYSYMHWFQQKPGQPPKLLIKYASNLESGVPARFSGSGSGTDFTLNIHPVEEEDTATYYCQHSWEIPLTFGAGTKLELKR
notes: also called Anti-PA(S) MAb 1.2 Fab; anti-PAS Fab 1.2
binding result (P/A #1 sequence [1]): no binding | Kd (PAS #1(600)-Leptin [2]): 0.123 µM | binding result (P/A#1(600)-GMCSF): no binding (tested: 4000 nM) | Kd (PAS #1(200)-IL1Ra [3]): 3.7 µM | EC50 (read off the curve) (IL1Ra-PAS#1(800)): ~0.2 µM | EC50 (read off the curve) (PAS #1(600)-Leptin [4]): ~0.1 µM | binding result (StrepII-eGFP-PAS #1(200)): binds | binding result (H1GA-PAS #1(200)-His6): binds

B2: Anti-PA(S) MAb 1.2 (antibody, V domains shown)
VH: B1 VH
VL: B1 VL
notes: Mouse monoclonal IgG from hybridoma (culture supernatant); alkaline phosphatase conjugate in the thymosin sandwich ELISA
binding result (P/A #1 sequence [5]): no binding | binding result (IL1Ra (Kineret/Anakinra)): no binding | Kd (hu4D5-PAS #1(200) [6]): 0.000162 µM | binding result (P/A #1(200)-IL1Ra): no binding (tested: hybridoma supernatant diluted 1:2000) | Kd (PAS #1(200)-IL1Ra [7]): 0.044 µM | EC50 (read off the curve) (hu4D5-PAS #1(200) [8]): ~0.0002 µM | binding result [9]: binds

B3: Fab fragment of Anti-PA(S) MAb 3.1 (Fab, V domains shown)
VH: QVQLQQSGAELVRPGASVKLSCKALGYIFTDYEMHWVKQTPVHGLEWIGVIHPGSGNTVYNQKFQGKATLTADKSSSTAYMEVSSLTSEDSAVYYCNLWGRWGQGTTLTVSS
VL: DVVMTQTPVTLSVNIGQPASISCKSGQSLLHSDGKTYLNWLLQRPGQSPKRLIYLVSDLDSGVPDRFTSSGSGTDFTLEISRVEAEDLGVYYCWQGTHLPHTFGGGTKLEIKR
notes: also called Anti-PA(S) MAb 3.1 Fab; anti-APSA antibody fragment
Kd (APSA(200)-IL1Ra [10]): 0.0019 µM | EC50 (read off the curve) (APSA(200)-IL1Ra [11]): ~0.002 µM | binding result (Pga-APSAAPSAAPSA): binds | Kd (APSA(200)-TrxA): 0.0025 µM
